Assay: yeast display, Sf9 membrane polyspecificity reagent, FACS + sequencing; frameworks hold sequencing errors
In short: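 A synthetic nanobody library was expressed on Saccharomyces cerevisiae BJ5465 by galactose induction for 36–48 hours. The library was stained for 1 hour at 4 °C with 10% biotinylated, detergent-solubilized Sf9 membrane reagent and enriched with streptavidin microbeads before FACS. Low and high (top ~1%) gates were set on anti-HA fluorescence for expression and streptavidin fluorescence for reagent binding, and each polyreactivity label reflects the gate of origin.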

Row | Sequence | polyreactivity (PSR sort gate)
1 | QVQLVESGGGLVQAGGSLRLSCAASGRFFGRHAMGWYRQAPGKERELVAVISKRGSSTSYADSVKGRFTISRDNAKNTVYLQMNSLKPEDTAVYYCNVFRVAYYATSTYGYDYWGQGTQVTVSS | high polyreactivity
2 | QVQLVESGGGLVQAGGSLRLSCAASGRFLWYNAMGWYRQAPGTERELVAAITRGGSTHYADSVKGRFTLSRDNAKNTVYLQMNSLKPEDTAVYYCAVSYRSFPYYWERYYSWGQGTQVTVSS | high polyreactivity
3 | QVQLVESGGGLVQAGGSLRLSCAASGRICDSYTMGWYRQAPGKERELVAAISRGGGSTYYADSVKGRFTISRDNAQNTVYLQMNSLKPEDTAVYYCAASSYLNSRFKFDYWGQGTQVTVSS | low polyreactivity
4 | QVQLVESGGGLVQAGGSLRLSCAASGRICINDMGWYRQAPGKERELVAAIRSDGSTNYADSVKGRFTISRDNAKNTVYLQMNSLKPEDTAVYYCNVDGYYLFVRGYEYWGQGTQVTVSS | low polyreactivity
5 | QVQLVESGGGLVQAGGSLRLSCAASGRIFAAYAMGWYRQAPGKERELVASISRGGSTNYADSVKGRFTISRDNAKNTVYLQMNSLKPEDTAVYYCAARQGSTYYAYYYWGQGTQVTVSS | high polyreactivity
6 | QVQLVESGGGLVQAGGSLRLSCAASGRIFAGYAMGWYRQAPGKERELVATISSGGSTYYADSVKGRFTISRDNAKNTVYLQMNSLKPEDTAVYYCAAEYGTRQYSSYYKLFNYWGQGTQVTVSS | low polyreactivity
7 | QVQLVESGGGLVQAGGSLRLSCAASGRIFAGYGMGWYRQAPGKARELVAAISSGGSTYYADSVKGRFTISRDNAKNTVYLQMNSLKPEDTAVYYCATDGQSVPDDYYQNVDYDYWGQGTQLTVSS | low polyreactivity
8 | QVQLVESGGGLVQAGGSLRLSCAASGRIFAGYVMGWYRQAPGKERELVAAISGSGASTYYADSVKGRFTISRDNAKNTVYLQMNSLKPEDTAVYYCAADKPGIFSRFDYWGQGTQVTVSS | low polyreactivity
9 | QVQLVESGGGLVQAGGSLRLSCAASGRIFAHNAMGWYRQAPGKERELVAAISGTGGRTYYADSVKGRFTISRDNAKNTVYLQMNSLKPEDTAVYYCARRPTHRTGVLDWEYDYWGQGTQVTVSS | low polyreactivity
10 | QVQLVESGGGLVQAGGSLRLSCAASGRIFAKYAMGWSRQAPGTERELVAAISWRGGRTYYADSVKGRFTISRDNAKNTVYLQMNSLKPEDTAVYYCNAVGSRAYVASAWTQMDYWGQGTQVTVSS | high polyreactivity
11 | QVQLVESGGGLVQAGGSLRLSCAASGRIFALYAMGWYRQAPGKERELVAAISGGGGSTYYADSVKGRFTISRDNAKNSVYLQMNSLKPEDTAVYYCAARGLSGSSVKYGYWGQGTQVTVSS | high polyreactivity
12 | QVQLVESGGGLVQAGGSLRLSCAASGRIFALYAMGWYRQAPGKERELVAAITWRGGRTRYADSVKGRFTISRDNAKNTVYLQMNSLKPEDTAVYYCAKEYVKYQWDYGYWGQGTQVTVSS | high polyreactivity
13 | QVQLVESGGGLVQAGGSLRLSCAASGRIFAPYAMGWYRQAPGKERELVAAITSGGSTNYADSVKGRFTISRDNAKNTVYLQMNSLKPEDTAVYYCAAEASYNYGKYVVTYDYWGQGTQVTVSS | high polyreactivity
14 | QVQLVESGGGLVQAGGSLRLSCAASGRIFAPYAMGWYRQAPGQEREFVATITVSGARTRYADSVKGRFTISRDNAKNTVYLQMNSLKPEETAVYYCAASKFYSWRATRKVSYDYWGQGTQVTVSS | high polyreactivity
15 | QVQLVESGGGLVQAGGSLRLSCAASGRIFAPYDMGWYRQAPGKERELVAAISRSGGSTYYADSVKGRFTISRDNAKNSVYFQLNSLKPEDTAVYYCAASYPGRYWLYRYEYWGQGTQVTVSS | high polyreactivity
16 | QVQLVESGGGLVQAGGSLRLSCAASGRIFAQYAMGWYRQAPGKERELVADISSGVRTYADSVKGRFTISRDNAKNTVYLQMNSLKPEDTAVYYCNAYYIIFTRNDYWGQGTQVTVSS | low polyreactivity
17 | QVQLVESGGGLVQAGGSLRLSCAASGRIFARKAMGWYRQAPGKEGELVARIRASGGSTYYADSVKGRFTISRDNAKNTVYLQMNSLKPEDTAVYYCNARTSSPYRVDYWGQGTQVTVSS | high polyreactivity
18 | QVQLVESGGGLVQAGGSLRLSCAASGRIFARNALGWYRQAPGKEGELVARIRASGGSTYYADSVKGRFTISRDNAKNTVYLQMNSLKPEDTAVYYCNARTSSPYRVDYWGQGTQVTVSS | high polyreactivity
19 | QVQLVESGGGLVQAGGSLRLSCAASGRIFARYAMGWYRQAPGKERELVAAITVSGDNTYYADSVKGRFTISRDNAKNTVYLQMNSLKPEDTAVYYCAVRAVLLFGFFEYDYWGQGTQVTVSS | low polyreactivity
20 | QVQLVESGGGLVQAGGSLRLSCAASGRIFARYTMGWYRQAPGKERELVATITGRGGRTYADSVKGRFTISRDNAKNTVYLQMNSLKPEVTAVYYCNAGGRTASRRYYWGQGSQVTVSS | low polyreactivity
21 | QVQLVESGGGLVQAGGSLRLSCAASGRIFASNAMGWYRQAPGKERELVAAISRTGGTTYYADSVKGRFTISRDNAKNTVYLQMNSLKPEDTAVYYCNAVKAPYLRYDYWGQGTQVTVSS | high polyreactivity
22 | QVQLVESGGGLVQAGGSLRLSCAASGRIFASNAMGWYRQAPGKERELVAAITTTGGSTYYADSVKGRFTISRDNAKNTVYLQMNSLKPEDTAVYYCAARAIPRVRRYGSMNYWGQGTQVTVSS | high polyreactivity

Row | Sequence | polyreactivity (PSR sort gate)
23 | QVQLVESGGGLVQAGGSLRLSCAASGRIFASYAMGWYRQAPGKERELVAAINSNGGSKYYADSVKGRFTISRDNAKNTVYLQMNSLKPEDTAVYYCAAGARYKMGYWGQGTQVTVSS | high polyreactivity
24 | QVQLVESGGGLVQAGGSLRLSCAASGRIFATNAMGWYRQAPGKERELVATITRSAGRTYYADSVKGRFTISRDNAKNTVYLQMNSLKPEDTAVYYCAASYWDTDPGYREYDYWGQGTQVTVSS | low polyreactivity
25 | QVQLVESGGGLVQAGGSLRLSCAASGRIFATNAMGWYRQAPGKERELVATITRSAGRTYYADSVKGRFTISRDTAKNTVYLQMNSLKPEDTAVYYCAASYWDTEPGYREYDYWGQGTQVTVSS | low polyreactivity
26 | QVQLVESGGGLVQAGGSLRLSCAASGRIFATYAMGWYRQAPGKERELVAAISDSGGRTYYADSVKGRFTISRDNAKNTVYLQMNSLKPEDTAVYYCARRAVYGIFDYWGQGTQVTVSS | high polyreactivity
27 | QVQLVESGGGLVQAGGSLRLSCAASGRIFAVYAMGWYRQAPGKERELVATISSSGSTHYADSVKGRFTISRDNAKNTVYLQMNSLKPEDTAVYYCNAGGSELKLGYDYWGQGTQVTVSS | low polyreactivity
28 | QVQLVESGGGLVQAGGSLRLSCAASGRIFAWNDMGWYRQAPGKERELVAAITSGGSTYYADSVKGRFTISRDNAKNTVYLQMNSLKPEDTAVYYCAAEVYVPDYFQHKFDVEYEYWGQGTQVTVSS | low polyreactivity
29 | QVQLVESGGGLVQAGGSLRLSCAASGRIFAWNDMGWYRQAPGKERELVAAITSGGSTYYADSVKGRFTISRDNAKNTVYLQMNSLKPEDTAVYYCAAGSAYYSQRYFAYGYDSWGQGTQVTVSS | low polyreactivity
30 | QVQLVESGGGLVQAGGSLRLSCAASGRIFAWNDMGWYRQAPGKESELVAAITSGGSTYYADSVKGRFTISRDNAKNTVYLQMNCLKPEDTAVYYCAAGSAYYSQRYFAYGYDSWGQGTQVTVSS | low polyreactivity
31 | QVQLVESGGGLVQAGGSLRLSCAASGRIFAYNAMGLYRQAPGKERELVADISSGGNTYYADSVKGRFTISRDNAKNTVYLQMNSLKPEDTAVYYCAKYTYDYWGQGTQVTVSS | low polyreactivity
32 | QVQLVESGGGLVQAGGSLRLSCAASGRIFAYNAMGWYRQAPGKERELVAAITWSGDSTYYADSVKGRFTISRDNAKNSVYLQMNSLKPVDTAVYYCATDALFKTSTRWKYDYWGQGTQVTVSS | low polyreactivity
33 | QVQLVESGGGLVQAGGSLRLSCAASGRIFAYNAMGWYRQAPGKERELVATITSSGDGTSYADSVKGRFTISRDNAKNTVYLQMNSLKPEDTAVYYCNKVTRVRRDPYDAVAYRGGYWGQGTQVTVSS | high polyreactivity
34 | QVQLVESGGGLVQAGGSLRLSCAASGRIFAYNDMGWYRQAPGKEREFVAAITWSGTTFSADSVKGRFTISRDNAKNTVYLQMNSLNPEDTAVYYCAAVPYTRWKGADGDYDDVYTEYWGQGTQVTVSS | high polyreactivity
35 | QVQLVESGGGLVQAGGSLRLSCAASGRIFAYNTMGWYRQAPGKEREMVAVITSGGSTNYADSVKGRFTISRDNAKITVYLQMNSLKPEDTAVYYCAKRPYGRSGGSRYDYWGHGTQVTVSS | high polyreactivity
36 | QVQLVESGGGLVQAGGSLRLSCAASGRIFAYYAMGWYRQAPGKERELVAAITRRSGDTTYYADSVKGRFTISRDNAKNTVYLQMNSLKPEDTAVYYCAARNPSFSSQYYSWGQGTQVTVSS | high polyreactivity
37 | QVQLVESGGGLVQAGGSLRLSCAASGRIFAYYAMGWYRQAPGKERELVATIRSGGDTNYADSVKGRFTISRDNAKNTVYLQMNSLKPEDTAVYYCNALYDWWYPHEYNYWGQGTQVTVSS | low polyreactivity
38 | QVQLVESGGGLVQAGGSLRLSCAASGRIFCVYAMGWYRQAPGKERELVAAIDTSDGSTNYADSVKGRFTISRDNAKYTVYLQMNSLKPEDTAVYYCNATDSYVPFDYWGQGTQVTVSS | low polyreactivity
39 | QVQLVESGGGLVQAGGSLRLSCAASGRIFDDNAMGWDRQAPGKETELVAAISASGGSTYYADSVKGRFTISRVNAKNTVYLQMNSLKPEDTAVYYCAKAPGQDTPYPYGYWGQGTQVTVSS | high polyreactivity
40 | QVQLVESGGGLVQAGGSLRLSCAASGRIFDDNAMGWYRQAPGKERELVAAISSGDSTKYADSVKGRFTISRDNAKNTVYLQMNSLKPEDTAVYYCNRRKTNSRYDYWGQGTQVTVSS | low polyreactivity
41 | QVQLVESGGGLVQAGGSLRLSCAASGRIFDGYAMGWNRKAPGKERELVPAISGGGNTKYADSEKGRFTISRDNAKNTVYLQMNSLKPEDTAVYYCAARGYYYGYRFDSWGQGTQVTVSS | high polyreactivity
42 | QVQLVESGGGLVQAGGSLRLSCAASGRIFDGYAMGWYRQAPGKERELVASISYDGGSTYYADSVQGRFTISRDNAKNTVYLQMNSLKPEDTAVYYCAAVYRRRSYTFYYWGQGTQVTVSS | high polyreactivity
43 | QVQLVESGGGLVQAGGSLRLSCAASGRIFDGYAMGWYRQAPGKERELVATITRGGSTNYADSVKRPFTISRDNAKNTVYIQMNSLKPEDTAVYYCNADIRRHGGYAHEYWGEGTQVTVSS | low polyreactivity

Source: the nanobody polyreactivity screen of Harvey et al. (2022)
